This note sets out measurements from patent publication US5677163.

Turning to “B. amyloliquefaciens subtilisin (protease) (enzyme)”, the Hydrolysis Rate (A405 /min) with VLKpNA came to 0.0017 A405/min; in the experiment with KAAFpNA it was 0.002 A405/min; with sAAPLpNA, 0.45 A405/min; with sAAPFpNA, 0.83 A405/min; with sAAApNA, 0.011 A405/min; with sAAPMpNA, 0.25 A405/min.

On to B. lentus protease (Savinase) (enzyme), for which the Hydrolysis Rate (A405 /min) with VLKpNA was 0.0003 A405/min; with KAAFpNA, 0.08 A405/min; with sAAPLpNA, 0.23 A405/min; in the experiment with sAAPFpNA it was 1.15 A405/min; with sAAApNA it was 0.176 A405/min; in the experiment with sAAPMpNA, 0.75 A405/min.

“LG-12 protease (Bacillus sp. strain LG-12 subtilisin, product of the sprC gene) (enzyme)”: the Hydrolysis Rate (A405 /min) with VLKpNA stood at 0.0008 A405/min; with KAAFpNA, 0.006 A405/min; with sAAPLpNA it was 0.58 A405/min; with sAAPFpNA it was 0.87 A405/min; with sAAApNA, 0.014 A405/min; with sAAPMpNA it was 0.19 A405/min.
